Measured values as given in US20240327804A1, “CONJUGATES AND METHODS OF USE THEREOF” (Regents of the University of Minnesota, priority 2023, published 2024).

Assays:
CD133+ HT29-R cells = assay: Binding of CSANs to CD133+ HT29-R cells by flow cytometry; conditions: fluorescein-labeled CSANs
Experimental: The Bangs beads (Bangs Laboratories, Cat: 815A) were collected and resuspended in PBS, and then stained with the fluorescently labeled antibody that detects the corresponding cell surface receptor (anti-EGFR-BV421, Biolegend, Cat: 352911; anti-HER2-BV421, Biolegend, Cat: 324420; anti-EpCAM-AF647, Biolegend, Cat: 118211) at 4° C. for >30 min, followed by wash steps. 100,000 of the cancer cells were collected and stained with the corresponding antibody at 4° C. for >30 min, followed by wash steps. The cells and beads were analyzed by flow cytometry. The calibration curve was generated based on the MFI of the beads and the corresponding antibody binding capacity of the beads. The receptor number was calculated based on the MFI of the cells stained with the antibody and the previously generated calibration curve. […]
The binding specificity of the CSANs to the corresponding cellular receptors was studied by flow cytometry. […] The cells were then pelleted, washed, and resuspended in 0.5 mL of cold DPBS and analyzed using an LSR II flow cytometer (BD Biosciences) at the University Flow Cytometry Resource (UFCR). […] The modified cells were then resuspended in 0.5 mL of cold DPBS and analyzed using an LSR II flow cytometer (BD Biosciences) at the University Flow Cytometry Resource (UFCR).

[1] = biological target: T1, epithelial cell adhesion molecule (EpCAM) on HT29-R cells (human, UniProt P16422 24-314); assay: flow cytometry, 0.5 µM fluorescein-labeled CSANs on HT29-R (EpCAM+) cells, 1 h at 4° C.
T1 construct: whole, on cells
T1 sequence (looked up): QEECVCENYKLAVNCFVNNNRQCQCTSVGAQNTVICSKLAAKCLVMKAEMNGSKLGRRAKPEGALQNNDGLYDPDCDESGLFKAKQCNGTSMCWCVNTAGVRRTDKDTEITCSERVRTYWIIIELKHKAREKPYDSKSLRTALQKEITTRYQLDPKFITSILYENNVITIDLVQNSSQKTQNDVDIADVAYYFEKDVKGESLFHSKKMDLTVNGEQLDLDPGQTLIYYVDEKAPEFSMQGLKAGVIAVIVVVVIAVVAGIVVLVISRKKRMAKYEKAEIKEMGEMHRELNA
Experimental: (§1) The binding specificity of the CSANs to the corresponding cellular receptors was studied by flow cytometry. A431-R cells were chosen as the EGFR⁺ cell line; SK-BR-3-R cells were chosen as the HER2⁺ cell line; HT-29-R cells were chosen as the EpCAM⁺ cell line; HT29-R cells were chosen as the CD133⁺ cell line. The cells were harvested and washed with DPBS buffer (Gibco, Cat: 14190144), and aliquots of […] were then resuspended in 100 μL of DPBS solutions containing 0.5 μM of fluorescein-labeled CSANs and incubated for 1 h at 4° C. The cells were then pelleted, washed, and resuspended in 0.5 mL of cold DPBS and analyzed using an LSR II flow cytometer (BD Biosciences) at the University Flow Cytometry Resource (UFCR). For the cell surface modification with farnesylated CSANs, the sender cells were collected from cell culture, pelleted at 350 g for 5 min, and washed with 1 mL DPBS. Aliquots of 10⁵ cells were then incubated in 100 μL of DPBS solutions containing the desired concentrations of fluorescein-labeled farnesylated CSANs for at least 1 h at room temperature with rotation and washed twice with 1 mL cold DPBS to remove unbound CSANs. The modified cells were then resuspended in 0.5 mL of cold DPBS and analyzed using an LSR II flow cytometer (BD Biosciences) at the University Flow Cytometry Resource (UFCR).

[2] = biological target: T1, epithelial cell adhesion molecule …; assay: flow cytometry, fluorescein-labeled CSANs on HT29-R cells, 1 h at 4° C.
Experimental: as §1

[3] = biological target: T2, human epidermal growth factor receptor 2 (HER2) on SK-BR-3-R cells (human, UniProt P04626 23-1255); assay: flow cytometry, fluorescein-labeled CSANs on SK-BR-3-R cells, 1 h at 4° C.
T2 construct: whole, on cells
Experimental: as §1

[4] = biological target: T3, epidermal growth factor receptor (EGFR) on A431-R / MDA-MB-231-R cells (human, UniProt P00533 25-1210); assay: flow cytometry, fluorescein-labeled CSANs on A431-R cells, 1 h at 4° C.
T3 construct: whole, on cells
Experimental: as §1

[5] = system: receptor expressing target cells (A431-R, SK-BR-3-R, HT29-R); assay: Binding specificity of CSANs to cellular receptors by flow cytometry; conditions: unfarnesylated fluorescein-labeled CSANs, 0.5 μM, 1 h, 4° C.
Experimental: as §1, with “EGFR^+” for “EGFR⁺”, “HER2^+” for “HER2⁺”, “EpCAM^+” for “EpCAM⁺”, “CD133^+” for “CD133⁺”, “10^5” for “10⁵”

B1: αCD133-scFv-DHFR^2 CSANs: fluorescein-labeled CSANs from αCD133-scFv-DHFR^2 protein (protein)
chain: MDIVLSQSPAIMSASPGEKVTISCSASSSVSYMYWYQQKPGSSPKPWIYRTSNLASGVPARFSGSGSGTSYSLTISSMEAEDAATYYCQQYHSYPPTFGAGTKLELKSSGGGGSGGGGGGSSRSSLEVKLVESGPELKKPGETVKISCKASGYTFTDYSMHWVNQAPGKGLKWMGWINTETGEPSYADDFKGRFAFSLETSASTAYLQINNLKNEDTATYFCATDYGDYFDYWGQGTTLTVSSELGGSGGGSGGGSGGMISLIAALAVDRVIGMENAMPWNLPADLAWFKRNTLNKPVIMGRHTWESIGRPLPGRKNIILSSQPGTDDRVTWVKSVDEAIAAAGDVPEIMVIGGGRVYEQFLPKAQKLYLTHIDAEVEGDTHFPDYEPDDWESVFSEFHDADAQNSHSYSFEILERRGMISLIAALAVDRVIGMENAMPWNLPADLAWFKRNTLNKPVIMGRHTWESIGRPLPGRKNIILSSQPGTDDRVTWVKSVDEAIAAAGDVPEIMVIGGGRVYEQFLPKAQKLYLTHIDAEVEGDTHFPDYEPDDWESVFSEFHDADAQNSHSYSFEILERRGGSGGGSGGGSGGDYKDDDDK
binding to HT29-R cells (CD133+ HT29-R cells): specifically bind

B2: unfarnesylated αEpCAM-Fn3 CSANs (αEpCAM-Fn3-DHFR^2-CVIA oligomerized by bisMTX) (designed binder)
chain: MDYKDDDDKASSSDSPRNLEVTNATPNSLTISWDNSNYASYYRITYGETGGNSPSQELTVPGSTYNATISGLKPGQDYIITVYAVTYRDNYSYSNLISINYRSEIDKPSQGSGGSGGGGSGGGGSGGGGSGGGGSGGGGSGGGGSGGGGSGGGGSGGELGGISLIAALAVDRVIGMENAMPWNLPADLAWFKRNTLNKPVIMGRHTWESIGRPLPGRKNIILSSQPGTDDRVTWVKSVDEAIAAAGDVPEIMVIGGGRVYEQFLPKAQKLYLTHIDAEVEGDTHFPDYEPDDWESVFSEFHDADAQNSHSYSFEILERRGGISLIAALAVDRVIGMENAMPWNLPADLAWFKRNTLNKPVIMGRHTWESIGRPLPGRKNIILSSQPGTDDRVTWVKSVDEAIAAAGDVPEIMVIGGGRVYEQFLPKAQKLYLTHIDAEVEGDTHFPDYEPDDWESVFSEFHDADAQNSHSYSFEILERRGGSGGGSGGHHHHHHGGSGGSGGKKKKKKTCVIA
modifications: Non-specific NHS-fluorescein label on amines; monomers joined non-covalently into a predominantly octameric ring by bisMTX; the letters give one monomer.
notes: Fn3-DHFR^2 fusion nanoring formed with bisMTX; 'predominantly octameric'; also called anti-EpCAM-C5-Fn-1DD-CVIA
binding result [1]: binds

B3: non-targeting DHFR^2-CVIA CSANs (other)
chain: GISLIAALAVDRVIGMENAMPWNLPADLAWFKRNTLNKPVIMGRHTWESIGRPLPGRKNIILSSQPGTDDRVTWVKSVDEAIAAAGDVPEIMVIGGGRVYEQFLPKAQKLYLTHIDAEVEGDTHFPDYEPDDWESVFSEFHDADAQNSHSYSFEILERRGGISLIAALAVDRVIGMENAMPWNLPADLAWFKRNTLNKPVIMGRHTWESIGRPLPGRKNIILSSQPGTDDRVTWVKSVDEAIAAAGDVPEIMVIGGGRVYEQFLPKAQKLYLTHIDAEVEGDTHFPDYEPDDWESVFSEFHDADAQNSHSYSFEILERRGGSGGSGGDYKDDDDKGGSGGSGGKKKKKKTCVIA
modifications: Non-specific NHS-fluorescein label on amines; monomers joined non-covalently into a predominantly octameric ring by bisMTX; the letters give one monomer.
notes: Control nanoring without targeting domain, unfarnesylated; 'predominantly octameric'
binding result [2]: no binding (tested: 0.5 µM)
binding result [3]: no binding (tested: 0.5 µM)
binding result [4]: no binding (tested: 0.5 µM)

B4: DHFR^2-CVIA CSANs: non-targeting unfarnesylated control CSANs from DHFR^2-CVIA protein (protein)
chain: GISLIAALAVDRVIGMENAMPWNLPADLAWFKRNTLNKPVIMGRHTWESIGRPLPGRKNIILSSQPGTDDRVTWVKSVDEAIAAAGDVPEIMVIGGGRVYEQFLPKAQKLYLTHIDAEVEGDTHFPDYEPDDWESVFSEFHDADAQNSHSYSFEILERRGGISLIAALAVDRVIGMENAMPWNLPADLAWFKRNTLNKPVIMGRHTWESIGRPLPGRKNIILSSQPGTDDRVTWVKSVDEAIAAAGDVPEIMVIGGGRVYEQFLPKAQKLYLTHIDAEVEGDTHFPDYEPDDWESVFSEFHDADAQNSHSYSFEILERRGGSGGSGGDYKDDDDKGGSGGSGGKKKKKKTCVIA
binding to receptor expressing target cells [5]: no observable binding
